Experiment [1] concerns the target T1, AAV9 (adeno-associated virus serotype 9 (AAV9)).
T1 construct: also called adeno-associated virus serotype 9; AAV9 antigen
Put plainly: 1 mL column of A4-002 coupled to agarose gel (11.58 mg/g gel); AAV capsid particles bound.

The target in experiment [2] is T2, AAV5 (adeno-associated virus serotype 5 (AAV5)).
T2 construct: also called adeno-associated virus serotype 5; AAV5 antigen
Described as above.

The target in experiment [3] is T3, AAV6 (adeno-associated virus serotype 6 (AAV6)).
T3 construct: also called adeno-associated virus serotype 6
Described as above.

Experiment [4] addresses T4, AAV8 (adeno-associated virus serotype 8 (AAV8)).
T4 construct: also called adeno-associated virus serotype 8; AAV8 antigen
The description is as above.

The target of experiment [5] is T1, AAV9. Put plainly: 1 mL column of A4-014 coupled to agarose gel (3.12 mg/g gel); AAV capsid particles bound.
Experiment [6] deals with T2, AAV5. The experiment is described as above.
Experiment [7] has as its target T3, AAV6. The experiment is described as above.
Experiment [8] deals with T4, AAV8. Described as above.
For experiment [9], the target named is T1, AAV9. The experiment in a line: 1 mL column of A4-008 coupled to agarose gel (10.74 mg/g gel); AAV capsid particles bound.
For experiment [10], the target named is T2, AAV5. The experiment is described as above.
Experiment [11] concerns the target T3, AAV6. The experiment is described as above.
The target in experiment [12] is T4, AAV8. The experiment is described as above.
Experiment [13] addresses T1, AAV9. Put plainly: 1 mL column of A4-008 coupled to agarose gel (9.77 mg/g gel); AAV capsid particles bound.
Experiment [14] deals with T2, AAV5. Described as above.
The target in experiment [15] is T3, AAV6. The experiment is described as above.
Experiment [16] addresses T4, AAV8. The experiment is described as above.
For experiment [17], the target named is T1, AAV9. Put plainly: 1 mL column of A4-024 coupled to agarose gel (6.36 mg/g gel); AAV capsid particles bound.
In experiment [18] the target is T2, AAV5. The experiment is described as above.
Experiment [19] has as its target T3, AAV6. The experiment is described as above.
The target in experiment [20] is T4, AAV8. The description is as above.
Experiment [21] concerns the target T5, AAV2 (adeno-associated virus serotype 2 (AAV2), UniProt P03135 1-735).
T5 construct: also called adeno-associated virus serotype 2; AAV2 antigen
The description is as above.

Experiment [22] addresses T6, AAV8 (adeno-associated virus serotype 8).
T6 construct: also called adeno-associated virus serotype 8
The experiment in a line: SPR, AAV on CM5 chip. Background: SPR reads the build-up and loss of mass on a sensor chip optically.

The target in experiment [23] is T7, AAV5 (adeno-associated virus serotype 5).
T7 construct: also called adeno-associated virus serotype 5
The experiment in a line: SPR, AAV on CM5 chip.

The target in experiment [24] is T8, AAV9 (adeno-associated virus serotype 9).
T8 construct: also called adeno-associated virus serotype 9
The experiment in a line: SPR, AAV on CM5 chip.

For experiment [25], the target named is T9, AAV2 (adeno-associated virus serotype 2, UniProt P03135 1-735).
T9 construct: also called adeno-associated virus serotype 2
The experiment in a line: SPR, AAV on CM5 chip.

Experiment [26] deals with T6, AAV8. Put plainly: SPR, AAV on CM5 chip. This is another data set of the same source.
Experiment [27] addresses T7, AAV5. Put plainly: SPR, AAV on CM5 chip. This is another data set of the same source.
Experiment [28] has as its target T8, AAV9. Put plainly: SPR, AAV on CM5 chip. The source holds these as a separate data set.
The target in experiment [29] is T9, AAV2. Put plainly: SPR, AAV on CM5 chip. The source holds these as a separate data set.
The target in experiment [30] is T6, AAV8. The experiment in a line: SPR, AAV on CM5 chip. This is another data set of the same source.
Method: (§1) AAV was amine-coupled to a CM5 sensor chip at a density of 500-800 response units (RU). Nanobodies were injected at seven concentrations (1-100 nM) with a flow rate of 45 μL/min, and chip regeneration was performed using glycine-HCl (pH 1.5). Binding curves at different nanobody concentrations were used to calculate kinetic parameters (Kₐ, Kd, KD) (Table 2 and FIG. 2).
Experiment [31] concerns the target T7, AAV5. Put plainly: SPR, AAV on CM5 chip. The source holds these as a separate data set.
Method: as §1
Experiment [32] deals with T8, AAV9. Put plainly: SPR, AAV on CM5 chip. The source holds these as a separate data set.
Method: as §1
The target of experiment [33] is T9, AAV2. The experiment in a line: SPR, AAV on CM5 chip. This is another data set of the same source.
Method: as §1

Changes are numbered by the printed parent chain. Read-outs that look alike come from different tables or passages of the source.

Results on 10 molecules are retold here after patent US20260193326A1 (published 2026).

B1: A4-002 (VHH)
VHH: VQLQESGGGLVQPGGSLRLSCAASGRSFSINTMGWYRQAPGKQRELVAAVTRGGSTNYAGSVKGRFTISRDNAKNTVYLQMNSLRPEDTAVYYCHIDEVRQSSWTTSNIWGQGTQVTVSS
As for B1, the binding capacity was 1.26e+14 VP in [1], 1.17e+14 VP in experiment [2], 9.2e+13 VP in experiment [3] and 1.02e+14 VP in experiment [4].

B2: A4-014 (VHH)
VHH: B1 VHH with R26S, S27R, T32S, A49T, S55N, I96V, Q101E, I109L
In the case of B2, the binding capacity in experiment [5] is 4.3e+13 VP; in [6], 3.22e+13 VP; in experiment [7], 2.59e+13 VP; in experiment [8], 3.83e+13 VP.

B3: A4-008 (VHH)
VHH: B1 VHH with P13A, S27A, G41P, A49T, V77I, I96V
For the molecule B3, the binding capacity was found to be 9.17e+13 VP in experiment [9]; 8.95e+13 VP in experiment [10]; 9.43e+13 VP in experiment [11]; 1.16e+14 VP in experiment [12]; 8.83e+13 VP in [13]; 8.56e+13 VP in experiment [14]. In addition, the binding capacity worked out at 8.78e+13 VP in experiment [15] and 9.47e+13 VP in experiment [16].

B4: A4-024 (VHH)
VHH: B1 VHH with R26S, S27N, S29R, A49T, G60D, A73P, I96V, Q101E, I109L
B4: the binding capacity in experiment [17] turned out to be 6.5e+13 VP; in experiment [18] it was 4.8e+13 VP; in experiment [19] it was 6.09e+13 VP; in [20], 5.17e+13 VP; in [21], 7.65e+13 VP.

B5: A4-H1 (VHH)
VHH: VQLVESGGGLVQPGGSLRLSCAASGRSFSINTMGWFRQAPGKGLEAVAIVTRGGSTYYADSVKGRFTISRDNSKNTLYLQMNSLRAEDTAVYYCHIDEVRQSSWTTSNIWGQGTLVTVSS
Usually Kd stands for the equilibrium constant for the complex coming apart. Higher therefore signals weaker binding. As a reminder, the koff is a measure of how fast the partners let go of each other. What is called kon is the rate constant with which the complex forms. Low values mean slow association, high ones fast association. Consider B5, for which the dissociation constant (Kd) in experiment [22] was 6.82 nM; in experiment [23], 8.76 nM; in experiment [24] it was 127 nM; in experiment [25], 8.51 nM. The koff in experiment [22] came to 0.00135 s⁻¹; in [23], 0.00153 s⁻¹; in experiment [24], 0.00069 s⁻¹; in experiment [25] it was 0.00139 s⁻¹. Moreover, the on-rate constant (kon) in experiment [22] came to 198000 M⁻¹ s⁻¹; in experiment [23] it was 175000 M⁻¹ s⁻¹; in experiment [24] it was 5420 M⁻¹ s⁻¹; in experiment [25] it was 163000 M⁻¹ s⁻¹.

B6: A4-H4 (VHH)
VHH: B5 VHH with R26S, S27I, T32L, A46L, V50I, R52P, S55N, L77V, I96V, I109L
As to B6, the dissociation constant Kd in [22] is 9.44 nM; in experiment [23], 2.86 nM; in experiment [24], 5.91 nM; in experiment [25] it was 17.2 nM. For the same molecule, the koff in experiment [22] amounted to 0.00125 s⁻¹; in [23], 0.00032 s⁻¹; in experiment [24], 0.00078 s⁻¹; in [25], 0.0017 s⁻¹. In addition, the kon was found to be 132000 M⁻¹ s⁻¹ in experiment [22], 112000 M⁻¹ s⁻¹ in experiment [23], 132000 M⁻¹ s⁻¹ in experiment [24] and 99000 M⁻¹ s⁻¹ in experiment [25].

B7: A4-H6 (VHH)
VHH: B5 VHH with S27G, L44R, A46L, S55T, L77V, I96V, I109L
As to B7, the dissociation constant Kd in experiment [22] is 344 nM; in experiment [23], 746 nM; in [24], 1160 nM; in experiment [25], 746 nM. The koff in experiment [22] turned out to be 0.00164 s⁻¹; in experiment [23], 0.00565 s⁻¹; in [24], 0.00177 s⁻¹; in experiment [25] it was 0.00565 s⁻¹. The kon in [22] was 4760 M⁻¹ s⁻¹; in experiment [23], 7570 M⁻¹ s⁻¹; in [24], 1530 M⁻¹ s⁻¹; in experiment [25], 7570 M⁻¹ s⁻¹.

B8: A4-B3 (VHH)
chain: VQLVESGGGLVQPGGSLRLSCAASGRSFSINTMGWFRQAPGKGLEAVAIVTRGGSTYYADSVKGRFTISRDNSKNTLYLQMNSLRAEDTAVYYCHIDEVRQSSWTTSNIWGQGTLVTVSSGGGGSGGGGSGGGGSVQLVESGGGLVQPGGSLRLSCAASGRSFSINTMGWFRQAPGKGLEAVAIVTRGGSTYYADSVKGRFTISRDNSKNTLYLQMNSLRAEDTAVYYCHIDEVRQSSWTTSNIWGQGTLVTVSS
For the molecule B8, the Kd in experiment [26] amounted to 0.835 nM; in experiment [27], 0.556 nM; in [28], 20.3 nM; in experiment [29] it was 0.245 nM. In addition, the koff was found to be 8e-05 s⁻¹ in [26], 0.0001 s⁻¹ in experiment [27], 0.00095 s⁻¹ in [28] and 2e-05 s⁻¹ in experiment [29]. The kon in experiment [26] worked out at 95800 M⁻¹ s⁻¹; in [27], 180000 M⁻¹ s⁻¹; in experiment [28], 46800 M⁻¹ s⁻¹; in experiment [29], 81600 M⁻¹ s⁻¹.

B9: A4-B4 (bispecific antibody)
chain: B8 chain with R161S, S162I, T167L, A181L, V185I, R187P, S190N, L212V, I231V, I244L
Turning to B9, the dissociation constant (Kd) in experiment [26] worked out at 0.332 nM; in [27], 0.872 nM; in experiment [28] it was 5.26 nM; in [29], 0.835 nM. For the same molecule, the dissociation rate constant (koff) in experiment [26] was determined as 5e-05 s⁻¹; in experiment [27], 0.00016 s⁻¹; in experiment [28], 0.00063 s⁻¹; in experiment [29], 8e-05 s⁻¹. The association rate constant (kon) in experiment [26] is 151000 M⁻¹ s⁻¹; in [27], 184000 M⁻¹ s⁻¹; in experiment [28] it was 120000 M⁻¹ s⁻¹; in experiment [29] it was 95800 M⁻¹ s⁻¹.

B10: A4-114 (VHH)
VHH: VQLQESGGGLVQTGGSLRLSCVASGSIFSINTVGWYRQAPGKQRELVATVTRAGSTWYAGSVKGRFTISRDNTKNTIYLQMNSLRPEDTAVYYCHVDELRQSTWTTSNLWGQGTQVTVSS
As for B10, the Kd in [30] was 1.81 nM; in experiment [31], 7.11 nM; in [32], 472 nM; in [33], 1.95 nM. The koff in experiment [30] was 0.00017 s⁻¹; in [31] it was 0.0011 s⁻¹; in experiment [32], 0.00123 s⁻¹; in [33] it was 0.00022 s⁻¹. Besides, the kon in [30] was 94000 M⁻¹ s⁻¹; in experiment [31], 155000 M⁻¹ s⁻¹; in experiment [32], 2610 M⁻¹ s⁻¹; in experiment [33], 113000 M⁻¹ s⁻¹.
